Assay results as given in patent US20220227874A1, “CHIMERIC ANTIGEN RECEPTORS TARGETING EPIDERMAL GROWTH FACTOR RECEPTOR VARIANT III” (published 2022).
Substitutions are numbered along the chain they refer to.

B1: 20B9 (antibody, V domains shown)
VH: QVTLKESGPVLVKPTETLTLTCTVSGFSLSNARMGVSWIRQPPGKALEWLGHIFSTDEKSYSTSLRGRITISKDTSRGLVVLTLTNMDPVDTATYYCARDSSNYEGYFDFWGPGFLVTVSS
VL: EIVMTQSPATLSVSPGERATLSCRVSQSIGANLAWYQQKFGQAPRLLIYGASTRATGIPVRFSGGGSGTEFTLTISSLQSEDFAIYSCQQYIYWPFTFGPGTTVDIK
B2: 32A10 (antibody, V domains shown)
VH: QVTLKESGPVLVKPTETLTLTCTVSGFSLSNARMGVSWIRQPPGKALEWLAHIFSTDEKSIRRSLRSRLTLSKDTSKSQVVLTMTNMDPVDTATYFCARDSSNYEGYFDYWGQGTLVTVSS
VL: EVVMTQSPATLSVSPGERVTLSCRASQSVSSNFAWYQQRPGQAPRLLLYGATTRATGLPGRFSGSGSGTENILTISSLQSEDFAIYFCQQYKDWPFTFGPGSKVDIK
B3: 49B11 (antibody, V domains shown)
VH: B2 VH with A32V, L50F, T56S, F96Y
VL: EMEVTQSPATLSVSPGERATLSCRASQNIGSDLAWYQQQSGQAPRLLISGASTRATGVPTRFSGSGSGTDFTLTITSLQSEDFAVYYCQQYNDWPFTFGPGTKVDIK
B4: 29D5 (antibody, V domains shown)
VH: B2 VH with A32P, I39L, L50F, I61Y, R62S, R63P, S67G, L71V, M84L, F96Y
VL: KIVMTQSPATLSVSPGERATLSCRANQIVSSNLAWYQQKPGQAPRLLVFGTSTRATGIPIRFSGSGSGTEFTLTVSSLQSEDFAVYVCQQYNDWPFTFGPGTKVDIK
B5: 14C11 (antibody, V domains shown)
VH: B2 VH with S30N, L50F, I61F, R63T, F96Y, T115I
VL: EIVMTQSPATLSVSPGERATLSCRASQSVSNNLAWYQQKPGQAPRLLIYGASTRATGVPARFSGSDSGTEFSLTISSLQSEDFAVYFCQQYKDWPFTFGPGTKVEIK
B6: 11B11 (antibody, V domains shown)
VH: B2 VH with R33K, L71M, F96Y, A98V
VL: B2 VL with V3L, V19A, S31T, Y49F, T52S, L58I, D105E
B7: 42G9 (antibody, V domains shown)
VH: B2 VH with V12L, A32P, L50F, I61L, R62K, R63L, D88A, T92S, F96Y, Y110F
VL: EVVLTQSPATLSVSPGERATLSCRASQSVRSNLAWYQQKSGQAPRLLIYGSTIRATGVPARFSGSGSGTEFTLTISSLQSEDFAVYYCQQYSDWPFTFGPGTKVDIK
B8: 21E11 (antibody, V domains shown)
VH: B2 VH with A32V, L50F, T56S, F96Y, Y110F
VL: B3 VL with E1D, E3V, N28S, I29V, Q39P, S40P, A43S, S49Y, T60A, Q79E
B9: 46E10 (antibody, V domains shown)
VH: B2 VH with T83I, F96Y
VL: B2 VL with A9P, T10N, V19A, S30T, A43S, T52S, L58V, I85V
B10: 21E7 (antibody, V domains shown)
VH: B2 VH with K5E, L47P, L50F, I61L, R63L, F96Y
VL: DVVLTQSPATLSVSPGERATLSCRASQSVNSNLAWYQQNPGQAPRLLIFGSSTRATGIPASFSGSGSGTEFTLTINSLQSEHSAVYYCQQYNDWPFTFGPGTKVDIK
B11: 12B2 (antibody, V domains shown)
VH: B2 VH with A32P, A51G, T56S, I61Y, R63L, T70S, L71I, F96Y, A98V, E105G
VL: EVVMTQSPATLSVSPGERATLSCRASQSVINNLAWYQQKPGQAPRLLIYGTSTRATDIPARFSGSGSGTEFTLTISSLQSEDFAVYYCQDYNNWPFTFGPGTKVDIK
B12: 12H6 (antibody, V domains shown)
VH: B2 VH with F96Y
VL: B2 VL with V19A, S28G, A43S, T52S, L58V
B13: 19A9 (antibody, V domains shown)
VH: B2 VH with K5E, L47P, L50F, I61L, R63L, F96Y
VL: B10 VL with D1E, L4M, S31R, N39K, S51T, S61R, N76D, A84G, V85L
B14: 11F10 (antibody, V domains shown)
VH: QVTLKESGPVLVKPIETLTLTCTVCGFSLSNPRMGVSWIRQPPGKALEWLGHIFSSDEKSYRLFLRSRLSISKDTSKSQVVLTMTNMDPVDTATYYCARDSSDYEGYFDYWGQGTLVTVSS
VL: EIVMTQSPATLSVSPGERTTLSCRASQSVGSNLAWYQQKPGQAPRLLIYGASTRASGVPARFSGSGSGTEFTLTISSLQSEDFAVYSCQEYNNWPFTFGQGTKVEIK
B15: 20G5 (antibody, V domains shown)
VH: EVQLVESGGDLVKPGGSLRLSCAASGFTFTNAWMSWVRQAPGKGLEWVGRIKSKIDGGTTDYAAPVKGRFIISRDDSKNTLSLQMNSLKTEDTAMYYCTTAPGGPFDYWGQGSLVTVSS
VL: DIVLTQSPLSLPVTPGEPASISCRSSQSLLYSDRRNYLDWFLQKPGQSPHLLIYLGSYRASGVPDRFSGSGSGTDFTLKISRVEAEDVGVYYCMQALQIPITFGQGTRLEIK
B16: 26B9 (antibody, V domains shown)
VH: EVQLVESWGVLVKPGGSLRLSCAASGFIFNNAWMSWVRQAPGKGLEWIGRIKSKSDGGTTDYAAPVKDRFTISRDDSKDTLYLQMNGLKTEDTAVYFCTTAPGGPFDYWGQGTLVTVSS
VL: B15 VL with Y31H, S32R, R34G, R35F, H50Q, G56A, Y58S, G71D, I99T
B17: 30D8 (antibody, V domains shown)
VH: EVQLVESGGGLVKPGGSLRLSCEASGFTFSDAWMSWVRQAPGKGLEWVGRIKSKTDGGTTDYVVPLNGRFIISRDDSRNTLYLQLNNLKTEDTAVYYCTTVPGSYGYWGQGTLVTVSS
VL: DIVMTQSPLSLPVTPGEPASISCRSSQSLLHNKRNNYLDWFLQKPGQSPQLLIYLASNRASGVPDRFSGGGSGTDFTLKISRVEAEDVGVYYCMQAQQTPITFGQGTRLEIK
B18: 20E12 (antibody, V domains shown)
VH: EVNLVESGGGLVKPGGSLRLSCEASGFTFSYAWMSWVRQAPGKGLEWVGRIKSIADGGATDYAAPVRNRFTISRDDSRNTLYLEMHSLKTEDTAVYYCTTIPGNDAFDMWGQGTMVTVSS
VL: DIVLTQSPLSLSVTPGEPASISCRSSQSLLYSNGKNYLDWFLHKPGQSPQLLIYLGSNRASGVPDRFSGSGSGIDFILKISRVEAEDVGVYYCMQAQQTPITFGQGTRLEIK
B19: 32G8 (antibody, V domains shown)
VH: B18 VH with A55T, A59V, T60I, F70C, A106D, T114R
VL: B18 VL
B20: 34E7 (antibody, V domains shown)
VH: B18 VH with A55N, A64S, T80M, M115L
VL: B18 VL with S26T, Y54F, N58I

target: T1, EGFRvIII expressed on cells (F98-npEGFRvIII, NCI-H522-EGFRvIII, U87-KO-EGFRvIII) (human); experiment: flow cytometry, F98-EGFRvIII cells; 2nd Ab only 2.3

Row | Binder | % positive [%]
1 | B1 | 98.3
2 | B2 | 98.3
3 | B3 | 98.5
4 | B4 | 97.9
5 | B5 | 98.2
6 | B6 | 98.2
7 | B7 | 98.5
8 | B8 | 98.5
9 | B9 | 98.7
10 | B10 | 98.5
11 | B11 | 97.9
12 | B12 | 98.3
13 | B13 | 98.1
14 | B14 | 98

target: T1, EGFRvIII expressed on cells …; experiment: flow cytometry, F98-EGFRvIII cells; 2nd Ab only 258

Row | Binder | MFI
15 | B1 | 3420
16 | B2 | 3350
17 | B3 | 2980
18 | B4 | 2830
19 | B5 | 3210
20 | B6 | 3390
21 | B7 | 3250
22 | B8 | 3100
23 | B9 | 2990
24 | B10 | 3100
25 | B11 | 2750
26 | B12 | 3440
27 | B13 | 3100
28 | B14 | 3280

target: T1, EGFRvIII expressed on cells …; experiment: flow cytometry, F98-EGFRvIII cells; 2nd Ab only 1.3

Row | Binder | % positive [%]
29 | B15 | 98.5
30 | B16 | 98.6
31 | B17 | 98.6
32 | B18 | 97.9
33 | B19 | 98.6
34 | B20 | 98.5

target: T1, EGFRvIII expressed on cells …; experiment: flow cytometry, F98-EGFRvIII cells; 2nd Ab only 322

Row | Binder | MFI
35 | B15 | 4640
36 | B16 | 5400
37 | B17 | 5160
38 | B18 | 3980
39 | B19 | 3730
40 | B20 | 4130

target: T1, EGFRvIII expressed on cells …; experiment: flow cytometry, EGFRvIII expressing cell line against non-expressing cell lines

Row | Binder | fold MFI over non-expressing cell lines [fold]
41 | B16 | ≥ 10
42 | B1 | ≥ 10
43 | B2 | ≥ 10
44 | B3 | ≥ 10
45 | B4 | ≥ 10
46 | B5 | ≥ 10
47 | B6 | ≥ 10
48 | B7 | ≥ 10
49 | B8 | ≥ 10
50 | B9 | ≥ 10
51 | B10 | ≥ 10
52 | B11 | ≥ 10
53 | B12 | ≥ 10
54 | B13 | ≥ 10
55 | B14 | ≥ 10
56 | B17 | ≥ 10
57 | B18 | ≥ 10
58 | B19 | ≥ 10
59 | B20 | ≥ 10
